In patent US20250230248A1 (TAVOTEK BIOTHERAPEUTICS HONG KONG, published 2025):

B1: Onartuzumab (antibody, V domains shown)
VH: EVQLVESGGGLVQPGGSLRLSCAASGYTFTSYWLHWVRQAPGKGLEWVGMIDPSNSDTRFNPNFKDRFTISADTSKNTAYLQMNSLRAEDTAVYYCATYRSYVTPLDYWGQGTLVTVSS
VL: DIQMTQSPSSLSASVGDRVTITCKSSQSLLYTSSQKNYLAWYQQKPGKAPKLLIYWASTRESGVPSRFSGSGSGTDFTLTISSLQPEDFATYYCQQYYAYPWTFGQGTKVEIK
notes: also called cMET OVH0 / cMET OVL0
B2: TV4 (antibody, V domains shown)
VH: QVQLQESGPGLVKPSGTLSLTCAVSGYIFTAYTMHWVRQPPGKGLEWIGGIKPNNGLANYNPSLKSRATLSVDKSKNQASMKLSSVTAADTAVYYCARSEITTEFDYWGQGTLVTVSS
VL: DIQMTQSPSSLSASVGDRVTITCRASESVDSYANSFMHWYQQKPGKAPKLLIYRASNLESGVPSRFSGSGSGTDFTLTISSLQPEDFATYYCQQSKEDPLTFGGGTKVEIK
notes: anti-cMET mAb hit; also called cMET TVH2 / cMET TVL2
B3: 7D VH6×TV4 bispecific antibody (bispecific antibody, not shown: a dimerising Fc or GST)
chain: not shown
VH: B2 VH
VL: B2 VL
notes: also called EGFR×cMet hit; candidate BsAb
B4: 7D VH4×TV4 bispecific antibody (bispecific antibody, not shown: a dimerising Fc or GST)
chain: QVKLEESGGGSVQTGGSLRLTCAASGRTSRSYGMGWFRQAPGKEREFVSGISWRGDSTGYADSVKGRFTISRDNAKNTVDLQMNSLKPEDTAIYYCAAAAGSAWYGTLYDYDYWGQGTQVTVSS
VH: B2 VH
VL: B2 VL
notes: as for B3
B5: EV1 (antibody, V domains shown)
VH: QVQLVQSGAEVKKPGASVKVSCKASGYTFTDYYMHWVRQAPGQGLEWMGRVNPNRGGTTYAQKFQGRVTMTTDTSISTAYMELSRLRSDDTAVYYCARANWLDYWGQGTTVTVSS
VL: DIQMTQSPSSLSASVGDRVTITCRVSQSVSSIYLHWYQQKPGKAPKLLIYSTSNLQSGVPSRFSGSGSGTDFTLTISSLQPEDFATYYCQVYSGYPLTFGGGTKVEIK
notes: anti-cMET mAb hit; also called cMET EVH1 / cMET EVL1
B6: 7D VH6×EV1 bispecific antibody (bispecific antibody, not shown: a dimerising Fc or GST)
chain: not shown
VH: B5 VH
VL: B5 VL
notes: as for B3
B7: 7D VH4×EV1 bispecific antibody (bispecific antibody, not shown: a dimerising Fc or GST)
chain: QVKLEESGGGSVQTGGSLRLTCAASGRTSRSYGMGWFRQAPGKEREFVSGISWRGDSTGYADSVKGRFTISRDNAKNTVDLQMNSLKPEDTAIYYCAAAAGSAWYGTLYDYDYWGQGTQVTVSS
VH: B5 VH
VL: B5 VL
notes: as for B3
B8: 7D VH1 (VHH)
VHH: EVQLVESGGGVVRPGGSLRLSCAASGRTSRSYGMGWFRQAPGKEREFVSGISWRGDSTGYADSVKGRFTISRDNAKNSVDLQMNSLRAEDTALYYCAAAAGSAWYGTLYEYDYWGQGTQVTVSS
notes: also called 7D VH hit; EGFR VHO mAb
B9: gp120 mAb (antibody, V domains shown)
VH: QVQLVQSGAEVKKPGASVKVSCQASGYRFSNFVIHWVRQAPGQRFEWMGWINPYNGNKEFSAKFQDRVTFTADTSANTAYMELRSLRSADTAVYYCARVGPYSWDDSPQDNYYMDVWGKGTTVIVSS
VL: EIVLTQSPGTLSLSPGERATFSCRSSHSIRSRRVAWYQHKPGQAPRLVIHGVSNRASGISDRFSGSGSGTDFTLTITRVEPEDFALYYCQVYGASSYTFGQGTKLERK
notes: also called anti-gp120 mAb v12; null control Ab
B10: TV1 (antibody, V domains shown)
VH: QVQLVQSGAEVKKPGSSVKVSCKASGYIFTAYTMHWVRQAPGQGLEWMGGIKPNNGLANYAQKFQGRVTITADESTSTAYMELSSLRSEDTAVYYCARSEITTEFDYWGQGTLVTVSS
VL: DIVMTQSPDSLAVSLGERATINCKSSESVDSYANSFLHWYQQKPGQPPKLLIYRASTRESGVPDRFSGSGSGTDFTLTISSLQAEDVAVYYCQQSKEDPLTFGGGTKVEIK
notes: anti-cMET mAb hit; also called cMET TVH1 / cMET TVL0

Columns and labels:
[1] = molecular target: T1, cMET extracellular domain (ECD) (UniProt P08581 25-932, limits assumed); assay: ELISA on cMET ECD, FIG. 3A
T1 construct: extracellular domain; Probably the same reagent as recombinant human cMET; also called cMET ECD

[2] = molecular target: T1, cMET extracellular domain (ECD); assay: blocking of HGF binding to cMET ECD, ELISA, FIG. 3F
[3] = molecular target: T2, EGFR on HCC827 cells (UniProt P00533 25-1210); assay: blocking of EGF binding to EGFR on HCC827 cells, FACS, FIG. 8B
T2 construct: whole, on cells; human tumour cell line; also called EGFR (HCC827)

[4] = molecular target: T2, EGFR on HCC827 cells; assay: blocking of EGF-EGFR binding, HCC827 cells, gMFI, FIG. 2D
[5] = molecular target: T3, recombinant human EGFR ECD (human, UniProt P00533 25-645); assay: ELISA on EGFR ECD, FIG. 2A
T3 construct: extracellular domain; also called EGFR extracellular domain (ECD)

T1 sequence (P08581 25-932 limits assumed): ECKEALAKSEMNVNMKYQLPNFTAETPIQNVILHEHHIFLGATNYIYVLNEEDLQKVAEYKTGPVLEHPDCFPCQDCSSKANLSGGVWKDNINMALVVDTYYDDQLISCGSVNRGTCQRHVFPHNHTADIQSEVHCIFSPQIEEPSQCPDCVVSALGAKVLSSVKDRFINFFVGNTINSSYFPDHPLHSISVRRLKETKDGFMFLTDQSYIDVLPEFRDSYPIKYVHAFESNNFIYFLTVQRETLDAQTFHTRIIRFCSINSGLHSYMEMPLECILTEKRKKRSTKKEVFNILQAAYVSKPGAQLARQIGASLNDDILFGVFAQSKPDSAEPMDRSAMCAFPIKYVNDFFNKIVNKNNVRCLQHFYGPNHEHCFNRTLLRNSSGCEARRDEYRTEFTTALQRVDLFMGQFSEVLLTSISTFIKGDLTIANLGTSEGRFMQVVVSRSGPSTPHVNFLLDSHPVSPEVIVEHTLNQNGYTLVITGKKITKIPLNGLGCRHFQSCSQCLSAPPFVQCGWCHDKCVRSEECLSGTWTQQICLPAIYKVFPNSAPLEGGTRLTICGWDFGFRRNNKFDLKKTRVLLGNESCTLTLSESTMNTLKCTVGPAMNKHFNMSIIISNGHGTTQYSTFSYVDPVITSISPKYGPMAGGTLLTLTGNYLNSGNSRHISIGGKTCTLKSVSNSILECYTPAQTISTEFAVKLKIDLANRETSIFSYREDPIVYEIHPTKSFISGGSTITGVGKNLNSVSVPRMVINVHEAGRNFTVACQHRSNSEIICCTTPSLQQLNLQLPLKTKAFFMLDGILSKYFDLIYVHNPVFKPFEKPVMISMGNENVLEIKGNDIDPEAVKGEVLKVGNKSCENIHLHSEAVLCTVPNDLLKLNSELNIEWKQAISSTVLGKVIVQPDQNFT

Binder | EC50 [1] [µg/mL] | EC50 [2] [µg/mL] | EC50 [3] [pM] | further results
B1 | ~0.025 | ~0.093 |  | 
B2 | ~0.018 | ~0.108 |  | 
B3 |  |  | ~630 | 
B4 |  |  | ~930 | 
B5 | ~0.0175 | ~0.093 |  | 
B6 |  |  | ~630 | 
B7 |  |  | ~810 | 
B8 |  |  |  | EC50 [4]: ~0.025 µg/mL
B9 |  |  |  | binding result [5]: no binding
B10 | ~0.0185 | ~0.122 |  | 
